Source: US9371520B2

Target: purified native cellulosome of C. thermocellum ATCC 27405 (C. thermocellum ATCC 27405) (UniProt Q06851)

How did the hydrolysis of microcrystalline cellulose and pre-treated switchgrass (soluble reducing sugars) turn out when “BglA-CohII (chimaeric C. thermocellum β-glucosidase A fused to the type-II cohesin module of the Orf2p anchoring protein) (enzyme)” was run?
The hydrolysis of microcrystalline cellulose and pre-treated switchgrass (soluble reducing sugars) was 2.68 fold.

How did the hydrolysis of microcrystalline cellulose and pre-treated switchgrass (soluble reducing sugars) turn out when “wild-type (WT) BglA, β-glucosidase A from C. thermocellum, as cloned (enzyme)” was run?
Its hydrolysis of microcrystalline cellulose and pre-treated switchgrass (soluble reducing sugars) is 2.06 fold.
